For series [1], the target named is trypsin-cleaved (truncated) recombinant murine cystatin C (mouse) (UniProt P21460). As to the kind of experiment: SEC; pH 4.0: 100 mM sodium acetate, 150 mM sodium chloride; 3 mg/mL protein kept at 4 °C overnight in the buffer; monomer to dimer ratio. A general note: In gel filtration, larger molecules generally elute earlier.
The target is the same in series [2]. As to the kind of experiment: SEC; pH 5.0 and 5.5 (100 mM sodium acetate, 150 mM NaCl) and pH 5.5, 6.0, 7.0, 8.0 (100 mM sodium phosphate, 150 mM NaCl); 3 mg/mL protein kept at 4 °C overnight in the buffer; monomer to dimer ratio.
Series [3] addresses recombinant murine cathepsin B, wild type, auto-activated (mouse).
Series [4] concerns the molecule itself. As to the kind of experiment: SEC; Superdex 75 Increase 10/300 GL; running buffer 100 mM sodium acetate, 5 mM calcium chloride, 100 mM NaCl, pH 5.5; separation of monomer and dimer fractions.

As for “trypsin-cleaved (truncated) recombinant murine cystatin C (from UniProt P21460 29-140) (domain or fragment)”, the percent present as dimer in series [1] was determined as 100%; in series [2], 70%.

B1: murine cystatin C dimer (dimer fraction isolated by size exclusion chromatography) (complex)
chain: ATPKQGPRMLGAPEEADANEEGVRRALDFAVSEYNKGSNDAYHSRAIQVVRARKQLVAGVNYFLDVEMGRTTCTKSQTNLTDCPFHDQPHLMRKALCSFQIYSVPWKGTHSLTKFSCKNA
For the molecule B1, the CTSB activity at pH 5.5 (Arg-Arg-AMC) with the CST3 dimer fraction in series [3] worked out at 3 fold.

B2: recombinant murine cystatin C (CST3), full-length (not trypsin-treated) (natural protein, mouse, UniProt P21460 21-140, looked up)
chain: ATPKQGPRMLGAPEEADANEEGVRRALDFAVSEYNKGSNDAYHSRAIQVVRARKQLVAGVNYFLDVEMGRTTCTKSQTNLTDCPFHDQPHLMRKALCSFQIYSVPWKGTHSLTKFSCKNA
notes: cystatin C, mouse, synthetic gene ordered without the signal peptide; The preparation is a mixture of monomer and dimer; the monomer fraction isolated by SEC is called mCST3; also called mCST3 (monomer fraction); CST3 monomers; source: E. coli SHuffle T7 Express, purified (Ni-IDA; monomer fraction by SEC); not shown: His-tag, N-terminal, kept; TEV protease cleavage site, N-terminal, kept
A word on the stoichiometry N: it is a count of units in the complex or per binding partner. On to B2, for which the “stoichiometry N” value in series [4] stood at 2.

The values are drawn from paper PMC11833081, “Biochemical analyses of cystatin-C dimers and cathepsin-B reveals a trypsin-driven feedback mechanism in acute pancreatitis” (Nature Communications, 2025).
